Measurements published in the DeepSol protein solubility set.

Assay: soluble on expression in E. coli; label from the status in PepcDB or PDB records

| Sequence | soluble on expression in E. coli |
| --- | --- |
| MRGMLPLFEPKGRVLLVDGHHLAYRTFHALKGLTTSRGEPVQAVYGFAKSLLKALKEDGDAVIVVFDAKAPSFRHEAYGGYKAGRAPTPEDFPRQLALIKELVDLLGLARLEVPGYEADDVLASLAKKAEKEGYEVRILTADKDLYQLLSDRIHVLHPEGYLITPAWLWEKYGLRPDQWADYRALTGDESDNLPGVKGIGEKTARKLLEEWGSLEALLKNLDRLKPAIREKILAHMDDLKLSWDLAKVRTDLPLEVDFAKRREPDRERLRAFLERLEFGSLLHEFGLLESPKALEEAPWPPPEGAFVGFVLSRKEPMWADLLALAAARGGRVHRAPEPYKALRDLKEARGLLAKDLSVLALREGLGLPPGDDPMLLAYLLDPSNTTPEGVARRYGGEWTEEAGERAALSERLFANLWGRLEGEERLLWLYREVERPLSAVLAHMEATGVRLDVAYLRALSLEVAEEIARLEAEVFRLAGHPFNLNSRDQLERVLFDELGLPAIGKTEKTGKRSTSAAVLEALREAHPIVEKILQYRELTKLKSTYIDPLPDLIHPRTGRLHTRFNQTATATGRLCCCDPNLQNIPVRTPLGQRIRRGFIAEEGWLLVALDYSQIELRVLAHLSGDENLIRVFQEGRDIHTETASWMFGVPREAVDPLMRRAAKTINFGVLYGMSAHRLSQELAIPYEEAQAFIERYFQSFPKVRAWIEKTLEEGRRRGYVETLFGRRRYVPDLEARVKSVREAAERMAFNMPVQGTAADLMKLAMVKLFPRLEEMGARMLLQVHDELVLEAPKERAEAVARLAKEVMEGVYPLAVPLEVEVGIGEDWLSAKE | soluble |
| MSLRLTKGSVKHQAKTEAELKTVKTQLDTQKAQIEKHFAESAELFKTLINDYQKLYRHYATSSNNLLGEKDQKGLFTQQLITATDKSQNEQPRDYSEGASGLFKENKEEEGHHHHHH | soluble |
| RADPDPMKNTCKLLVVADHRFYRYMGRGEESTTTNYLIELIDRVDDIYRNTAWDNAGFKGYGIQIEQIRILKSPQEVKPGEKHYNMAKSYPNEEKDAWDVKMLLEQFSFDIAEEASKVCLAHLFTYQDFDMGTLGLAYVGSPRANSHGGVCPKAYYSPVGKKNIYLNSGLTSTKNYGKTILTKEADLVTTHELGHNFGAEHDPDGLAECAPNEDQGGKYVMYPIAVSGDHENNKMFSQCSKQSIYKTIESKAQECFQERSNKVGSHHHHHH | soluble |
| MEMGMKRIANECFFAWVESEIKSGRSVKFRVKGNSMMPLLRNGKDEVVVGPYDKEELKLFDVILFRQTDRYVLHRIIQKRDSRYLMQGDGVCRFYEECEDTDIIGVVRKVCRPSGKKIETDSMCWRLESRLWLGLGGCRGMVLRVLNRLGCCLLF | not soluble |
| SLPTGGAPGRRWVGCRDMEHEVFVPVPAERLRDVLADPVRVARAVPGLQQDAGAEPVAGRLKVRIGSHSITYRGSLRLSARGDGTYAVEGDATESRGTGAVALALTLRADDAEGGATLTFTGTATADGRVAELPPDSVASAANRLLARFAENLGTAAQAPPAPEPEPSPQPEPRPASVFDTEVPPSSLADSGGGSDSDSDGDADEDTDAGADADADAQADEKAEAEGDADRGGRTDDEPAVSPPAEAAHARRTMIGRSAEEVDHAPPRGRYAPVPAPQPSAVGAPLRW | soluble |
| MVIPALNEAPTVAKVVEAVLADNPLEVLVIDADSTDATAAEARSAGATVLNWREILDTEPIPGKGESLWRGVAAARGDIVVFVDADLTSFRPGMVNSLVAPFLNDDIHLVKADYVRTFGDHTTGGGRVTELTAKPLLRALFPELSHIRQPLGGEYAIRRSTALAMPFVSGYGVEVGLLIDVATQFGTSSIAQVDLGSRSHNHQSLEALGSMADVVATTILQRFGHDLPVVQREPLGIHLEHHHHHH | not soluble |
| MIIDGHTHVILPVEKHIKIMDEAGVDKTILFSTSIHPETAVNLRDVKKEMKKLNDVVNGKTNSMIDVRRNSIKELTNVIQAYPSRYVGFGNVPVGLSENDTNSYIEENIVNNKLVGIGELTPASGQIKSLKPIFKYSMDSGSLPIWIHAFNPLVLQDIKEIAELCKAFPKVPVILGHMGGSNWMTAVELAKEIQNLYLDTSAYFSTFVLKIVINELPLKCIFGTDMPFGDLQLSIEAIKKMSNDSYVANAVLGDNISRLLNIMAGDPLEHHHHHH | not soluble |
| MTKKIIGIAGNQLLQAAEVFHGNQVTYTPQGFVSAVQAAGGVPLVLPIGPKELAATYIQQIDKLLLAGGQDVAPEFYGQEPHIKLEETNRDRDEFELALIEEALKQNKPIFAVCRGMQLVNVALGGTLYQDLSMYPQWSVKHGQQPTQPIFATHRIDVEPDSQLSNIYGTTGQVNSYHHQALHTLGKDLRVTAWSSDGLAEAVESTNEQQPLLAVQWHPELMYARDAKSQALFNYFVQKL | not soluble |
| EDLDCTPGFQQKVFHINQPAEFIEDQSILNLTFSDCKGNDKLRYEVSSPYFKVNSDGGLVALRNITAVGKTLFVHARTPHAEDMAELVIVGGKDIQGSLQDIFKFARTSPVPRQKRSIVVSPILIPENQRQPFPRDVGKVVDSDRPERSKFRLTGKGVDQEPKGIFRINENTGSVSMTRTLDREVIAVYQLFVETTDVNGKTLEGPVPLEVIVIDQNDNRPIFREGPYIGHVMEGSPTGTTVMRMTAFDADDPATDNALLRYNIRRQTPDKPSPNMFYIDPEKGDIVTVVSPALLDRETLENPKYELIIEAQDMAGLDVGLTGTATATIMIDDKNDHSPKFTKKEFQATVEEGAVGVIVNLTVEDKDDPATGAWRAAYTIINGNPGQSFEIHTNPQTNEGMLSVVKPLDYEISAFHTLLIKVENEDPLVPDVSYGPSSTATVHITVLDVNEGPVFYPDPMMVTRQEDLSVGSVLLTVNATDPDSLQHQTIRYSVYKDPAGWLNINPINGTVDTTAVLDRESTFVDNSVYTALFLAIDSGNPPATGTGTLLITLEDVNDNAPFIYPTVAEVCDDAKNLSVVILGASDKDLHPNTDPFKFEIHKQAVPDKVWKISKINNTHALVSLLQNLNKANYNLPIMVTDSGKPPMTNITDLRVQVCSCRNSKVDCNAAGALRFSLPSVLLLSLFSLACL | soluble |
| GKSIFDKLWDRHVITGKEGEPQLMYVDQHYIHEVTSPQAFQGLRDAGRKVRRPDLTFGTFDHNVPTVNIYDIRDVISKAQMDALARNVIEFNIPHADHGSENQGIVHMVGPETGRTQPGKFIVCGDSHTATHGAFGAIGFGIGTTEVEHVFATQTIWQVKPKK | not soluble |
| MGSDKIHHHHHHMNSPYTRSPRTIKHAFVTGATGLLGNNLVRALLKQGIKVTALVRSMEKARLQFGDLPIQYVKGDILNPEAFRSAFTDCDTLFHTAAFFRDSHKGGKHWQELYDTNVTGTTHLLKAAYEEGIRQMIHTSSIAVLKGERHQLIDETMSRDPSTKLDYYRSKILSENAVSNFLKEYPDLFLCYVLPGSMYGPGDMGPTATGQLILDYMQQKLPGIITKASYSVVDTRDVADIHILALKYGRRNERYLAAGRHMTMESIVKTLEEITGIPAPKRHIPIFLVQALAQWNELYHKITGKPVLVSKEIADITAEEYLRTYFSHKKTEQELGGQFRPFEETLLDTVRWYRNHGYLN | not soluble |
| MAHHHHHHMFLLCRTNLAKKIKDKIPYGVKQSQNYKDAKKQERLALEANRKLKESRGMLLDGKKNLFMCLRQNSDINWYRAGQILKHLEIHQRAKPDITPSLREKITNIANFVKKGR | soluble |
| MAHHHHHHMSVSVTEHRHGDMHHGTMRRRCLTRVLLAGPQGDLEALVSRMPRTWSLQQPLEMLQPEAVEEERANTASAAAATRTENAGLAGGKVPDKSAASVMISYSPVRATLPLAAAASEEERAEEDVVDVVAAVEEKAAMKADLHNSSGSAVEPPSLEGTPNVRLHAAQAPHEEQQEEGDCGVVVAHEAPALTEDGIPGADSAVVRAAEVAATLDIGSQLAEAAPCADRASLDSSAALPVSQVPE | not soluble |
| MAHHHHHHMPPLAQLCALALQYRCDLSQEIDQNIRSCFHSSRVPSISLWDYIRRFAKYSVCSEECFILAMVLMDRYVCKTQIPITLRNVHRLYITAMTLSVKLRDDSYYSNAYYASIGGVVNAELNVLELELLDIVQWFTWVEKSVYDAYVARLEALFGDAMPKLLVASPNK | not soluble |
| GKDWNWNVGGVLGYNKNKVTYVNVKAPAIFLQFDYPAAYPRVGVPYNAIYGYLWAGLDSKGQPQVYDSEGNIHVSSSPQKVEDAVYLGTSVPVYSGAINTNLRYKNWELAAQLLFEGGHKMRNTNIAYPGLGVTSKDVSKRWRQPGDEAYTDVPRYVPSESKDYNSYSSDLYSKASIHVLDADNWRLKNLSVTYHVPASVCQKFYVKNARIMLGMENVFTLAKSRDVKWMLGGYSKPNYLCNVNLNF | not soluble |
| MAEHRGGSGNFAEDREKASDAGRKGGQHSGGNFKNDPQRASEAGKKGGQQSGGNKSGKS | soluble |
